According to paper PMC5024704:

Assays:
[1] = molecular target: SgcC FADH2-dependent monooxygenase (Streptomyces globisporus); experiment: SEC
[2] = molecular target: SgcE6 flavin reductase (Streptomyces globisporus); experiment: SEC

| Substance | stoichiometry N [1] | stoichiometry N [2] |
| --- | --- | --- |
| SgcC FADH2-dependent monooxygenase (enzyme) | 4 | – |
| SgcE6 flavin reductase (enzyme) | – | 2 |
